No end group written: not given here. O‑glycan = not defined here
Columns and labels:
[1] = In vivo half-life assay, serum OCN after intraperitoneal injection in Bglap-/- mice; set-up: species or system mouse; details: for serum OCN / Serum OCN at 120 minutes: fed Bglap-/- male mice; for serum OCN / % OCN from initial (relative to maximum at 30 min) / % OCN from initial, mean used for 1/2 life: 40 ng/g i.p.; for serum OCN: ELISA; for % OCN from initial (relative to maximum at 30 min) / % OCN from initial, mean used for 1/2 life: serum, fasted Bglap-/- mice
Experimental: For in vivo half-life assay, Bglap-/- male mice were injected intraperitoneally with 40 or 80 ng/g of body weight of mouse O-glycosylated ucOCN or non-glycosylated ucOCN, serum OCN level was analyzed at indicated time points using total mouse OCN ELISA. In all ex vivo and in vivo studies, mouse or human proteins were prepared in saline solution (0.9% NaCl) containing BSA (35 mg/ml) as a carrier.

[2] = tested on: INS-1 832/3 cells; assay: Ins1 gene expression in INS-1 832/3 cells treated with ucOCN; type: cell-based, rat; details: 8 hr, qPCR
Experimental: (§1) The INS-1 832/3 rat insulinoma cell line (Millipore-Sigma) was cultured in RPMI-1640 with 11.1 mM D-glucose, supplemented with 2 mM L-glutamine, 1 mM sodium pyruvate, 10 mM HEPES, 0.05 mM β-mercaptoethanol and 10% FBS ([Hohmeier et al., 2000]). On day 1, cells were plated at 3 × 10^5 cells per well in 12-well plates and on day 5, cells were washed with PBS and incubated with culture media containing 5 mM D-glucose. Twenty-four hours later, cells were washed with PBS and incubated for 4 hr in culture media containing 1% FBS, 5 mM D-glucose and 0.1% BSA. OCN was added for 8 hr before supernatants and cells were harvested. ucOCN and O-gly ucOCN concentration were measured in supernatants by ELISA and cells were lyzed and RNA extracted as described in the material and methods section. Gene expression was analyzed using rat specific primers for Ins1 and Gapdh.

[3] = tested on: INS-1 832/3 cells; assay: OCN stability in INS-1 832/3 cell culture media; type: in vitro ADME, rat; details: 8 hours at 4°C without cells, ELISA
[4] = tested on: INS-1 832/3 cells; assay: OCN stability in INS-1 832/3 cell culture media; type: in vitro ADME, rat; details: 8 hours with INS-1 cells at 37°C, ELISA
Experimental: as §1

## O-gly ucOCN: O-glycosylated uncarboxylated mouse osteocalcin produced and purified from HEK293 as Fc fusion, released by thrombin (YLGASVPS(O‑glycan)PDPLEPTREQCELNPACDELSDQYGLKTAYKRIYGITI; ends and bridges not checked; also: O-glycosylated (HexNAc, Hex, NANA); UniProt P86546 50-95, looked up)
[1]; 120 min, mouse 5
  serum OCN: 10.2 ng/mL
  % OCN from initial (relative to maximum at 30 min): 74.7%
[1]; 120 min, mouse 6
  serum OCN: 7.5 ng/mL
[1]; 120 min, mouse 7
  serum OCN: 4.4 ng/mL
[1]; 120 min, mouse 8
  serum OCN: 8.5 ng/mL
[1]; 120 min, mouse 9
  serum OCN: 6.4 ng/mL
[1]; 120 min, mouse 10
  serum OCN: 5.9 ng/mL
[1]; 180 min, mouse 1
  serum OCN: 1.2 ng/mL
[1]; 180 min, mouse 2
  serum OCN: 2.3 ng/mL
[1]; 180 min, mouse 3
  serum OCN: 1.0 ng/mL
[1]; 180 min, mouse 4
  serum OCN: 2.9 ng/mL
[1]; 180 min, mouse 5
  serum OCN: 2.4 ng/mL
[1]; 180 min, mouse 6
  serum OCN: 4.2 ng/mL
[1]; 180 min, mouse 7
  serum OCN: 3.5 ng/mL
[1]; 180 min, mouse 8
  serum OCN: 4.0 ng/mL
[1]; 180 min, mouse 9
  serum OCN: 3.7 ng/mL
[1]; 180 min, mouse 10
  serum OCN: 3.9 ng/mL
[1]; dose 40 ng/g i.p., mouse 1
  Serum OCN at 120 minutes: 9.5 ng/mL
[1]; dose 40 ng/g i.p., mouse 2
  Serum OCN at 120 minutes: 4.6 ng/mL
[1]; dose 40 ng/g i.p., mouse 3
  Serum OCN at 120 minutes: 13.3 ng/mL
[1]; dose 40 ng/g i.p., mouse 4
  Serum OCN at 120 minutes: 10.2 ng/mL
[1]; dose 80 ng/g i.p., mouse 1
  Serum OCN at 120 minutes: 11.6 ng/mL
[1]; dose 80 ng/g i.p., mouse 2
  Serum OCN at 120 minutes: 22.5 ng/mL
[1]; dose 80 ng/g i.p., mouse 3
  Serum OCN at 120 minutes: 25.2 ng/mL
[1]; dose 80 ng/g i.p., mouse 4
  Serum OCN at 120 minutes: 14.9 ng/mL
[1]; 30 min, mouse 1
  % OCN from initial (relative to maximum at 30 min): 100.0%
[1]; 30 min, mouse 2
  % OCN from initial (relative to maximum at 30 min): 100.0%
[1]; 30 min, mouse 3
  % OCN from initial (relative to maximum at 30 min): 100.0%
[1]; 30 min, mouse 4
  % OCN from initial (relative to maximum at 30 min): 100.0%
[1]; 30 min, mouse 5
  % OCN from initial (relative to maximum at 30 min): 100.0%
[1]; 60 min, mouse 1
  % OCN from initial (relative to maximum at 30 min): 89.4%
[1]; 60 min, mouse 2
  % OCN from initial (relative to maximum at 30 min): 88.9%
[1]; 60 min, mouse 3
  % OCN from initial (relative to maximum at 30 min): 97.3%
[1]; 60 min, mouse 4
  % OCN from initial (relative to maximum at 30 min): 86.4%
[1]; 60 min, mouse 5
  % OCN from initial (relative to maximum at 30 min): 90.9%
[1]; 90 min, mouse 1
  % OCN from initial (relative to maximum at 30 min): 85.8%
[1]; 90 min, mouse 2
  % OCN from initial (relative to maximum at 30 min): 74.3%
[1]; 90 min, mouse 3
  % OCN from initial (relative to maximum at 30 min): 85.8%
[1]; 90 min, mouse 4
  % OCN from initial (relative to maximum at 30 min): 74.6%
[1]; 90 min, mouse 5
  % OCN from initial (relative to maximum at 30 min): 75.0%
[1]; 120 min, mouse 1
  % OCN from initial (relative to maximum at 30 min): 70.4%
[1]; 120 min, mouse 2
  % OCN from initial (relative to maximum at 30 min): 66.4%
[1]; 120 min, mouse 3
  % OCN from initial (relative to maximum at 30 min): 75.1%
[1]; 120 min, mouse 4
  % OCN from initial (relative to maximum at 30 min): 74.6%
[1]; time 0 min of declining phase
  % OCN from initial, mean used for 1/2 life: 100.0%
[1]; time 30 min of declining phase
  % OCN from initial, mean used for 1/2 life: 90.6%
[1]; time 60 min of declining phase
  % OCN from initial, mean used for 1/2 life: 79.1%
[1]; time 90 min of declining phase
  % OCN from initial, mean used for 1/2 life: 72.2%
[2]; 0.1 ng/mL, replicate 1
  Ins1 gene expression (Fold change relative to vehicle): 2.4 Fold change
[2]; 0.1 ng/mL, replicate 2
  Ins1 gene expression (Fold change relative to vehicle): 1.6 Fold change
[2]; 0.1 ng/mL, replicate 3
  Ins1 gene expression (Fold change relative to vehicle): 2.2 Fold change
[2]; 0.1 ng/mL, replicate 4
  Ins1 gene expression (Fold change relative to vehicle): 2.6 Fold change
[2]; 0.1 ng/mL, replicate 5
  Ins1 gene expression (Fold change relative to vehicle): 3.1 Fold change
[2]; 0.1 ng/mL, replicate 6
  Ins1 gene expression (Fold change relative to vehicle): 3.0 Fold change
[2]; 0.1 ng/mL, replicate 7
  Ins1 gene expression (Fold change relative to vehicle): 4.2 Fold change
[2]; 0.1 ng/mL, replicate 8
  Ins1 gene expression (Fold change relative to vehicle): 2.7 Fold change
[2]; 0.3 ng/mL, replicate 1
  Ins1 gene expression (Fold change relative to vehicle): 0.562 Fold change
[2]; 0.3 ng/mL, replicate 2
  Ins1 gene expression (Fold change relative to vehicle): 1.1 Fold change
[2]; 0.3 ng/mL, replicate 3
  Ins1 gene expression (Fold change relative to vehicle): 1.1 Fold change
[2]; 0.3 ng/mL, replicate 4
  Ins1 gene expression (Fold change relative to vehicle): 12.1 Fold change
[2]; 0.3 ng/mL, replicate 5
  Ins1 gene expression (Fold change relative to vehicle): 2.0 Fold change
[2]; 0.3 ng/mL, replicate 6
  Ins1 gene expression (Fold change relative to vehicle): 8.6 Fold change
[2]; 0.3 ng/mL, replicate 7
  Ins1 gene expression (Fold change relative to vehicle): 2.7 Fold change
[2]; 0.3 ng/mL, replicate 8
  Ins1 gene expression (Fold change relative to vehicle): 4.9 Fold change
[2]; 0.3 ng/mL, replicate 9
  Ins1 gene expression (Fold change relative to vehicle): 2.3 Fold change
[2]; 0.3 ng/mL, replicate 10
  Ins1 gene expression (Fold change relative to vehicle): 0.7 Fold change
[3]; replicate 1
  OCN in stimulation media: 0.15 ng/mL
[3]; replicate 2
  OCN in stimulation media: 0.15 ng/mL
[3]; replicate 3
  OCN in stimulation media: 0.14 ng/mL
[4]; replicate 1
  OCN in stimulation media: 0.12 ng/mL
[4]; replicate 2
  OCN in stimulation media: 0.13 ng/mL
[4]; replicate 3
  OCN in stimulation media: 0.13 ng/mL
